Results on 7 molecules are retold here after patent publication US6034062A, “Bone morphogenetic protein (BMP)-9 compositions and their uses” (Genetics Institute, Inc., priority 1997, dated 2000).

For assay [1], the system named is BMP-9 receptors expressed on HepG2 cells. Nature of the assay: 125I-BMP-9 binding to HepG2 cells. Particulars: HepG2 cells, 125I-BMP-9 and 250-fold excess of unlabeled ligand. How it is done:
BMP-9 responsiveness in parenchymal liver cells is tested by screening four liver cell lines for their ability to bind iodinated, CHO-derived BMP-9. […] Specific binding of BMP-9 to HepG2 cells is carried out by incubating HepG2 cells grown to confluence in Dulbecco's Modified Eagle's Medium (DME) containing 10% heat-inactivated fetal calf serum (FCS) on gelatinized 6 well plates with 2 ng/ml ^125 I-BMP-9 and increasing concentrations of unlabelled BMP-9 in binding buffer (136.9 mM NaCl, 5.37 mM KCl, 1.26 mM CaCl2, 0.64 mM MgSO4, 0.34 mM Na2 HPO4, 0.44 mM KH2 PO4, 0.49 mM MgCl2, 25 mM HEPES and 0.5% BSA, pH 7.4) for 20 hours at 4° C. to achieve binding equilibrium. This incubation follows a one hour preincubation at 37° C. in binding buffer alone. For crosslinking experiments, the cells were incubated with 500 μM disuccinimidyl suberate for 20 minutes at […] following binding. Cell extracts were analyzed on SDS-PAGE. […] To test the binding specificity of the receptors for BMP-9, HepG2 cells were incubated with ^125 I-BMP-9 and a 250-fold excess of different unlabeled ligands.

In assay [2] the test system is Articular cartilage explants from calf carpal joints. As to the kind of experiment: Articular cartilage assay (proteoglycan synthesis, sulfate incorporation). It counts as cell-based. The note with it: 100 ng/ml, calf articular cartilage explants. How it is done: The effect of BMP-9 on articular cartilage proteoglycan and DNA synthesis is assayed to determine if BMP-9 is involved in the regulation of metabolism of differentiated articular cartilage.
Articular cartilage explants from calf carpal joints are maintained in DMEM with 50 μg/ml ascorbate, 4 mM glutamine and antibiotics for 3 days. Cytokines (rhBMP-2, rhBMP-4, rhBMP-6 and rhBMP-9, IGF-1, bFGF (1-1000 ng/ml), and TGFβ (1-100 ng/ml)) are added to the medium and culture is continued for 3 more days. Medium is changed daily. Twenty-four hours prior to harvest, explants are pulsed with 50 μCi/ml ^35 SO4 or 25 μCi/ml ^3 H-thymidine. Explants are solubilized and separation of free isotope is performed by gel chromatography. Total DNA of each explant is measured by a spectrophotometric assay.

B1: BMP-3: BMP protein used as unlabeled competing ligand (protein)
chain: QWIEPRNCARRYLKVDFADIGWSEWIISPKSFDAYYCSGACQFPMPKSLKPSNHATIQSIVRAVGVVPGIPEPCCVPEKMSSLSILFFDENKNVVLKVYPNMTVESCACR
Take B1: in assay [1], the “crossreactivity of BMP-9 receptors with unlabeled ligand” value (from here on “crossreactivity of BMP-9 receptors”) was “no crossreactivity”.

B2: TGF-β2: transforming growth factor β2 (protein)
chain: ALDAAYCFRNVQDNCCLRPLYIDFKRDLGWKWIHEPKGYNANFCAGACPYLWSSDTQHSRVLSLYNTINPEASASPCCVSQDLEPLTILYYIGKTPKIEQLSNMIVKSCKCS
Take B2: the “crossreactivity of BMP-9 receptors” value in assay [1] is given as “no crossreactivity”.

B3: BMP-4: BMP protein, cytokine in cartilage assay and competing ligand (protein)
chain: SPKHHSQRARKKNKNCRRHSLYVDFSDVGWNDWIVAPPGYQAFYCHGDCPFPLADHLNSTNHAIVQTLVNSVNSSIPKACCVPTELSAISMLYLDEYDKVVLKNYQEMVVEGCGCR
Take B3: the “crossreactivity of BMP-9 receptors” value in assay [1] is “limited crossreactivity”. The proteoglycan synthesis result in assay [2] was “significantly more active in stimulating proteoglycan synthesis”.

B4: BMP-12: BMP protein used as unlabeled competing ligand (protein, UniProt Q7Z4P5 322-450, looked up)
Growth/differentiation factor …: TALAGTRTAQGSGGGAGRGHGRRGRSRCSRKPLHVDFKELGWDDWIIAPLDYEAYHCEGLCDFPLRSHLEPTNHAIIQTLLNSMAPDAAPASCCVPARLSPISILYIDAANNVVYKQYEDMVVEACGCR
Consider B4, for which, in assay [1], the “crossreactivity of BMP-9 receptors” value is listed as “no crossreactivity”.

B5: BMP-5: BMP protein used as unlabeled competing ligand (protein)
chain: AANKRKNQNRNKSSSHQDSSRMSSVGDYNTSEQKQACKKHELYVSFRDLGWQDWIIAPEGYAAFYCDGECSFPLNAHMNATNHAIVQTLVHLMFPDHVPKPCCAPTKLNAISVLYFDDSSNVILKKYRNMVVRSCGCH
In the case of B5, in assay [1], the “crossreactivity of BMP-9 receptors” value is recorded as “no crossreactivity”.

B6: BMP-6: BMP protein, cytokine in cartilage assay and competing ligand (protein)
chain: SASSRRRQQSRNRSTQSQDVARVSSASDYNSSELKTACRKHELYVSFQDLGWQDWIIAPKGYAANYCDGECSFPLNAHMNATNHAIVQTLVHLMNPEYVPKPCCAPTKLNAISVLYFDDNSNVILKKYRNMVVRACGCH
B6: the “crossreactivity of BMP-9 receptors” value in assay [1] was “no crossreactivity”. In addition, the proteoglycan synthesis entry in assay [2] is reported as “significantly more active in stimulating proteoglycan synthesis”.

B7: BMP-7: BMP protein used as unlabeled competing ligand (protein)
chain: STGSKQRSQNRSKTPKNQEALRMANVAENSSSDQRQACKKHELYVSFRDLGWQDWIIAPEGYAAYYCEGECAFPLNSYMNATNHAIVQTLVHFINPETVPKPCCAPTQLNAISVLYFDDSSNVILKKYRNMVVRACGCH
As for B7, the “crossreactivity of BMP-9 receptors” value in assay [1] is “no crossreactivity”.
